Consider 2 molecules from patent US20100056764A1 (Novo Nordisk, published 2010).

Assay [1] deals with T1, human NKG2D (hNKG2D) on the cell surface (human, UniProt P26718 1-216).
T1 chain: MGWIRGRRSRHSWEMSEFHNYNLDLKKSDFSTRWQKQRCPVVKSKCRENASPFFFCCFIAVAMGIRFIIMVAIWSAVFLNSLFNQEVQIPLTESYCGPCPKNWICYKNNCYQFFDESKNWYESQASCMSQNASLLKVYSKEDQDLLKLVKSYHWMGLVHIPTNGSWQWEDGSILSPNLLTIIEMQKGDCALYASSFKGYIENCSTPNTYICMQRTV
Kind of assay: cell-based or functional assay.

The target of assay [2] is T2, cynomolgous monkey NKG2D on NK, CD8+ T and gamma-delta T cells (cynomolgous monkey (Macaca fascicularis), UniProt P61252 1-216).
T2 construct: whole, on cells; Target on cynomolgous PBMC and whole blood cells; also called cynomologous NKG2D; cyno NKG2D
T2 sequence (looked up): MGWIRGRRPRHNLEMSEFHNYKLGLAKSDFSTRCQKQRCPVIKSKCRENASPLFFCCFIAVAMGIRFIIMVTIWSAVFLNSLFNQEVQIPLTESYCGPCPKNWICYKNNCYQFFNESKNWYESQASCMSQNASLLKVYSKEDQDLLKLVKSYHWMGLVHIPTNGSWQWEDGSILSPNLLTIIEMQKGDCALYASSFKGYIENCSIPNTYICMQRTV
Kind of assay: flow cytometry, NK cells; reference is 21F2 on human cells. How it is done: (§1) Briefly, incubation with antibody was performed at 4° C. for 30 min followed by washing, then directly labelled secondary anti-hIgG4 antibody was added and incubated for 30 min at 4° C. along with antibodies specific for the various cell populations of interest, CD8, CD4, NK and γδ-T cells, then the cells were washed twice in PBS with 2% FCS and the red blood cell lysed. The cells were then analyzed by flow cytometry and binding to the different cell populations assessed.
Background: Flow cytometry measures light scatter and fluorescence of single cells or particles in a stream.

In assay [3] the target is T2, cynomolgous monkey NKG2D on NK, CD8+ T …. As to the kind of experiment: flow cytometry, CD8 T cells; reference is 21F2 on human cells. How it is done: as §1
Assay [4] deals with T1, human NKG2D (hNKG2D) on the cell surface. As to the kind of experiment: flow cytometry, human NK cells in PBMC, anti-human IgG4 detection. The method, then:
as §1

Assay [5] has the same target. As to the kind of experiment: flow cytometry, dose-response on NKG2D- and DAP10-expressing BaF/3 cells.
For assay [6] the target is unchanged. As to the kind of experiment: flow cytometry, human CD8 T cells in PBMC, anti-human IgG4 detection. How it is done:
as §1

The target of assay [7] is T2, cynomolgous monkey NKG2D on NK, CD8+ T …. Kind of assay: flow cytometry, cynomolgous NK cells in PBMC, anti-human IgG4 detection. How it is done: as §1
Assay [8] has the same target. Kind of assay: flow cytometry, cynomolgous CD8 T cells in PBMC, anti-human IgG4 detection. The method, then: as §1
Assay [9] shares this target. As to the kind of experiment: flow cytometry, gamma-delta T cells (Gd); reference is 21F2 on human cells. The method, then: as §1
For assay [10], the target named is T1, human NKG2D (hNKG2D) on the cell surface. As to the kind of experiment: flow cytometry, human gamma-delta T cells (Gd) in PBMC, anti-human IgG4 detection. The method, then: as §1
Assay [11] has as its target T2, cynomolgous monkey NKG2D on NK, CD8+ T …. Kind of assay: flow cytometry, cynomolgous gamma-delta T cells (Gd) in PBMC, anti-human IgG4 detection. How it is done: as §1
In assay [12] the target is T3, recombinant NKG2D-Fc protein (R&D Systems), immobilized on a Biacore CM5 chip (human, UniProt P26718 78-216).
T3 construct: also called NKG2D-hFc; hFc-NKG2D; not shown: Fc portion of the purchased fusion protein
T3 sequence: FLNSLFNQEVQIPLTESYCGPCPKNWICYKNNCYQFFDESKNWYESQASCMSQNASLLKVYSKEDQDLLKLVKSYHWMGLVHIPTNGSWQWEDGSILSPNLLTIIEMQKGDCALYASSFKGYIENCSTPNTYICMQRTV
Kind of assay: SPR (Biacore), NKG2D-Fc immobilized on CM5 chip at 400 RU, antibody in solution, Langmuir fit. The method, then:
Surface plasmon resonance measurements were performed on a Biacore 1000 upgrade apparatus (Biacore GE Healthcare; Biacore Upgrade CA0396) at 25° C. In all Biacore experiments HBS-EP buffer (Biacore GE Healthcare; BR-1001-88) served as running buffer and sensorgrams were analyzed with Biaevaluation 4.1 software.
Protein immobilisation. […] Recombinant NKG2D-Fc proteins were immobilized covalently to carboxyl groups in the dextran layer on a Sensor Chip CM5 (Biacore GE Healthcare; BR-1000-14). The sensor chip surface was activated with EDC/NHS (N-ethyl-N′-(3-dimethylaminopropyl)carbodiimidehydrochloride and N-hydroxysuccinimide (Biacore GE Healthcare; BR-1000-50)). […] Deactivation of the remaining activated groups was performed using 100 mM ethanolamine pH 8 (Biacore GE Healthcare; BR-1000-50).
[…] The resulting sensorgrams were analysed by global fitting using the Langmuir model. The dissociation constant (KD) was calculated as KD=kd/ka.

Assay [13] addresses T1, human NKG2D (hNKG2D) on the cell surface. Kind of assay: flow cytometry, NKG2D/DAP10 BaF/3 cells pre-incubated with antibody, then 1 µg MICA-mFc (competitor). How it is done: (§2) Flow cytometry assays—MICA blockade. […] The cells were then analysed on a B&D FACSArray flow cytometer. The degree of reduction of MICA binding by preincubation was analysed as MFI (mean fluorescence intensity) of binding with pre-incubation in % of binding of MICA without preincubation.

For assay [14] the target is unchanged. Described as above. The method, then: as §2
For assay [15] the target is unchanged. Kind of assay: flow cytometry blocking assay on NKG2D/DAP10-expressing BaF/3 cells: pre-incubation with the antibody, then 1 µg MICA-mFc; y axis % remaining MICA-Fc binding. The method, then:
as §2

“And” between values parts separate entries of the source, which are not always exact repeats. Equal entries are not always repeated. Where two headings read alike, the source gives them in different places.

B1: 21F2, fully human anti-hNKG2D monoclonal antibody, recombinantly expressed as IgG4 isotype (antibody, V domains shown)
VH: EVQLVQSGAEVKEPGESLKISCKNSGYSFTNYWVGWVRQMPGKGLEWMGIIYPGDSDTRYSPSFQGQVTISADKSINTAYLQWSSLKASDTAMYYCGRLTMFRGIIIGYFDYWGQGTLVTVSS
VL: EIVLTQSPATLSLSPGERATLSCRASQSVSSYLAWYQQKPGQAPRLLIYDASNRATGIPARFSGSGSGTDFTLTISSLEPEDFAVYYCQQRSNWPWTFGQGTKVEIKR
notes: also called 21F2 IgG4; 21F2 (IgG4)
For orientation: EC50 means the concentration giving half of the maximal effect. The term Kd denotes the free concentration of one partner at which half of the binding sites on the other are occupied at equilibrium, for simple one-to-one binding. In general, koff refers to the rate constant with which the complex falls apart. One may read the kon as a measure of how fast the partners come together. Usually IC50 stands for the concentration at which inhibition is half-maximal. As to B1, in assay [1], the “EC50 (µg/ml), inhibition of NK cell killing of ULPB3-expressing target cells (51Cr release)” value was 0.021 µg/mL. Besides, the results for the “relative EC50, cynomolgous to human cells (%)” value in assay [2], in [3] and in assay [9] were 66.7%, 71.9% and 81.1%, respectively. Further, the EC50 in assay [4] was 0.0712 µg/mL; in assay [5], 0.033 µg/mL and 0.023 nM; in [6], 0.0605 µg/mL; in assay [7] it was 0.0475 µg/mL; in assay [8], 0.0435 µg/mL; in [10], 0.0572 µg/mL. Further, in assay [11], a half-maximal effect (EC50) was put at 0.0464 µg/mL. In assay [12], the equilibrium dissociation constant (Kd) was determined as 77.9 pM. In addition, in assay [12], the koff came to 0.000144 s⁻¹. Besides, the kon in assay [12] amounted to 1.85e+06 M⁻¹ s⁻¹. Moreover, the IC50 stood at 4.8 pM in assay [13] and 0.0063 µg/mL in [14]. Besides, the “Full blockade of 1 µg MICA-Fc (antibody concentration)” value in [14] stood at 0.16 µg/mL. In assay [15], the “IC50 (read off the curve)” value is ~4 pM.

B2: MS, fully human anti-hNKG2D monoclonal antibody, recombinantly expressed as IgG4 isotype (antibody, V domains shown)
VH: QVHLQESGPGLVKPSETLSLTCTVSDDSISSYYWSWIRQPPGKGLEWIGHISYSGSANYNPSLKSRVTISVDTSKNQFSLKLSSVTAADTAVYYCANWDDAFNIWGQGTMVTVSS
VL: not shown
notes: also called MS IgG4; MS (IgG4)
In the case of B2, the “IC50 (read off the curve)” value in assay [15] is ~2 pM.
